Measurements taken from patent publication US11278600B2, “Human alpha-galactosidase variants” (Codexis, Inc., priority 2014, dated 2022).
Substitutions are numbered along the chain they refer to.

B1: 205 (protein)
chain: LDNGLARTPTMGWLHWERFMCNLDCQEEPDSCISEKLFMEMAELMVSEGWKDAGYEYLCIDDCWMAPQRDSEGRLQADPQRFPHGIRQLANYVHSKGLKLGIYADVGNKTCAGFPGSFGYYDIDAQTFADWGVDLLKFDGCYCDSLENLADGYKHMSLALNRTGRSIVYSCEWPLYMWPFQKPNYTEIRQYCNHWRNFADIDDSWASIKSILDWTSFNQERIVDVAGPGGWNDPDMLVIGNFGLSWNQQVTQMALWAIMAAPLFMSNDLRHISPQAKALLQDKDVIAINQDPLGKQGYQLRQGDNFEVWERPLSGLAWAVAMINRQEIGGPRSYTIAVASLGKGVACNPACFITQLLPVKRKLGFYDWDSRLRSHINPTGTVLLQLENTMQMSLKDLL
modifications: Synthetic Polypeptide sequence of Variant No. 205
B2: 211 (protein)
chain: B1 chain with F365L, D367N, D369T, I376V, L394K, K395D, D396L
modifications: Synthetic Polypeptide sequence of Variant No. 211 of mature Human GLA
B3: 219 (protein)
chain: B1 chain with M322I, D367E, D369T, R373K, L394K, K395D, D396L
modifications: Synthetic Polypeptide sequence of Variant No. 219 of mature Human GLA
B4: 210 (protein)
chain: B1 chain with F365L, D367N, D369T, L394K, K395D, D396L
modifications: Synthetic Polypeptide sequence of Variant No. 210 of mature Human GLA
B5: 218 (protein)
chain: B1 chain with M322I, D367N, D369T, R373K
modifications: Synthetic Polypeptide sequence of Variant No. 218
B6: 213 (protein)
chain: B1 chain with H15Q, D367E, D369T, L394K, K395D, D396L
modifications: Synthetic Polypeptide sequence of Variant No. 213 of mature Human GLA
B7: 212 (protein)
chain: B1 chain with F365L, D367N, D369T, R373K, I376V, L394K, K395D, D396L
modifications: Synthetic Polypeptide sequence of Variant No. 212 of mature Human GLA
B8: 221 (protein)
chain: B1 chain with D367E, D369T, M390I, L394K, K395D, D396L
modifications: Synthetic Polypeptide sequence of Variant No. 221 of mature Human GLA
B9: 215 (protein)
chain: B1 chain with K343G, D367E, D369T, L394K, K395D, D396L
modifications: Synthetic Polypeptide sequence of Variant No. 215 of mature Human GLA
B10: 209 (protein)
chain: B1 chain with D367P, L394K, K395D, D396L
modifications: Synthetic Polypeptide sequence of Variant No. 209 of mature Human GLA
B11: 214 (protein)
chain: B1 chain with K343D, F365L, D367N, D369T, L394K, K395D, D396L
modifications: Synthetic Polypeptide sequence of Variant No. 214 of mature Human GLA
B12: 220 (protein)
chain: B1 chain with M322V, D367E, D369T, R373K, I376V, L394K, K395D, D396L
modifications: Synthetic Polypeptide sequence of Variant No. 220 of mature Human GLA
B13: 208 (protein)
chain: B1 chain with D367N, D369T, R373K, I376V, L394K, K395D, D396L
modifications: Synthetic Polypeptide sequence of Variant No. 208 of mature Human GLA
B14: 216 (protein)
chain: B1 chain with K343G, F365L, D367N, D369T, R373K, L394K, K395D, D396L
modifications: Synthetic Polypeptide sequence of Variant No. 216 of mature Human GLA
B15: 206 (protein)
chain: B1 chain with D367N, D369T
modifications: Synthetic Polypeptide sequence of Variant No. 206
B16: 207 (protein)
chain: B1 chain with D367N, D369T, R373K, L394K, K395D, D396L
modifications: Synthetic Polypeptide sequence of Variant No. 207 of mature Human GLA

Assay: HTP-analysis of supernatants pretreated with acid (MUGal hydrolysis)
Assay type: biochemical
Conditions: challenge at pH 4.2; activity of the variant/activity of Rd2BB (SEQ ID NO: 10); yeast supernatant
Procedure, shortened: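 MUGal hydrolysis was tracked by fluorescence (Ex 355 nm, Em 448 nm) after a 30-180 min reaction at 37° C. in pH 4.8 McIlvaine/citrate buffer, stopped with 1 M sodium carbonate. Beforehand, yeast (INVSc1) culture supernatants carrying GLA variants were held 1-3 h at 37° C. in acidic McIlvaine buffer, pH 3.3-4.3.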
With B1 the “Relative Activity of GLA Variants After Challenge at pH 4.2” value (“Relative Activity … at pH 4.2” for short) was “++ (++ = 1.5 to 2.5 relative activity over Rd2BB (SEQ ID NO: 10))”.
In the case of B2, the “Relative Activity … at pH 4.2” value is reported as “++ (++ = 1.5 to 2.5 relative activity over Rd2BB (SEQ ID NO: 10))”.
For B3, the “Relative Activity … at pH 4.2” value was “+ (+ = 0.5 to 1.5 relative activity over Rd2BB (SEQ ID NO: 10))”.
For B4, the “Relative Activity … at pH 4.2” value was “++ (++ = 1.5 to 2.5 relative activity over Rd2BB (SEQ ID NO: 10))”.
In the case of B5, the “Relative Activity … at pH 4.2” value is reported as “+++ (+++ = >2.5 relative activity over Rd2BB (SEQ ID NO: 10))”.
With B6 the “Relative Activity … at pH 4.2” value was “− (− = <0.5 relative activity over Rd2BB (SEQ ID NO: 10))”.
In the case of B7, the “Relative Activity … at pH 4.2” value is reported as “++ (++ = 1.5 to 2.5 relative activity over Rd2BB (SEQ ID NO: 10))”.
In the case of B8, the “Relative Activity … at pH 4.2” value is reported as “+ (+ = 0.5 to 1.5 relative activity over Rd2BB (SEQ ID NO: 10))”.
In the case of B9, the “Relative Activity … at pH 4.2” value is reported as “+ (+ = 0.5 to 1.5 relative activity over Rd2BB (SEQ ID NO: 10))”.
In the case of B10, the “Relative Activity … at pH 4.2” value is reported as “+ (+ = 0.5 to 1.5 relative activity over Rd2BB (SEQ ID NO: 10))”.
In the case of B11, the “Relative Activity … at pH 4.2” value is reported as “+++ (+++ = >2.5 relative activity over Rd2BB (SEQ ID NO: 10))”.
For B12, the “Relative Activity … at pH 4.2” value was “+ (+ = 0.5 to 1.5 relative activity over Rd2BB (SEQ ID NO: 10))”.
For B13, the “Relative Activity … at pH 4.2” value was “+++ (+++ = >2.5 relative activity over Rd2BB (SEQ ID NO: 10))”.
In the case of B14, the “Relative Activity … at pH 4.2” value is reported as “+++ (+++ = >2.5 relative activity over Rd2BB (SEQ ID NO: 10))”.
In the case of B15, the “Relative Activity … at pH 4.2” value is reported as “+++ (+++ = >2.5 relative activity over Rd2BB (SEQ ID NO: 10))”.
With B16 the “Relative Activity … at pH 4.2” value was “+++ (+++ = >2.5 relative activity over Rd2BB (SEQ ID NO: 10))”.

Assay: HTP-analysis of yeast culture supernatants, no challenge (MUGal hydrolysis)
Assay type: biochemical
Conditions: activity of the variant/activity of Rd2BB (SEQ ID NO: 10), yeast supernatant
Procedure, shortened: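 Activity read as 4-methylumbelliferyl α-D-galactopyranoside hydrolysis: fluorescence (355/448 nm) after sodium carbonate stop, following 30-180 min at 37° C with 2 mM MUGal stock at pH 4.6–4.8. Enzyme source is unchallenged culture supernatant of INVSc1 yeast expressing GLA variants, grown 66-84 h at 30° C.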
In the case of B1, the “Relative Activity of GLA Variants After No Challenge (NC)” value is reported as “++ (++ = 1.5 to 2.5 relative activity over Rd2BB (SEQ ID NO: 10))”.
For B2, the “Relative Activity of GLA Variants After No Challenge (NC)” value was “++ (++ = 1.5 to 2.5 relative activity over Rd2BB (SEQ ID NO: 10))”.
In the case of B3, the “Relative Activity of GLA Variants After No Challenge (NC)” value is reported as “+ (+ = 0.5 to 1.5 relative activity over Rd2BB (SEQ ID NO: 10))”.
For B4, the “Relative Activity of GLA Variants After No Challenge (NC)” value was “++ (++ = 1.5 to 2.5 relative activity over Rd2BB (SEQ ID NO: 10))”.
For B5, the “Relative Activity of GLA Variants After No Challenge (NC)” value was “+++ (+++ = >2.5 relative activity over Rd2BB (SEQ ID NO: 10))”.
With B6 the “Relative Activity of GLA Variants After No Challenge (NC)” value was “+ (+ = 0.5 to 1.5 relative activity over Rd2BB (SEQ ID NO: 10))”.
For B7, the “Relative Activity of GLA Variants After No Challenge (NC)” value was “++ (++ = 1.5 to 2.5 relative activity over Rd2BB (SEQ ID NO: 10))”.
For B8, the “Relative Activity of GLA Variants After No Challenge (NC)” value was “+ (+ = 0.5 to 1.5 relative activity over Rd2BB (SEQ ID NO: 10))”.
With B9 the “Relative Activity of GLA Variants After No Challenge (NC)” value was “+ (+ = 0.5 to 1.5 relative activity over Rd2BB (SEQ ID NO: 10))”.
With B10 the “Relative Activity of GLA Variants After No Challenge (NC)” value was “+ (+ = 0.5 to 1.5 relative activity over Rd2BB (SEQ ID NO: 10))”.
With B11 the “Relative Activity of GLA Variants After No Challenge (NC)” value was “+++ (+++ = >2.5 relative activity over Rd2BB (SEQ ID NO: 10))”.
For B12, the “Relative Activity of GLA Variants After No Challenge (NC)” value was “+ (+ = 0.5 to 1.5 relative activity over Rd2BB (SEQ ID NO: 10))”.
With B13 the “Relative Activity of GLA Variants After No Challenge (NC)” value was “++ (++ = 1.5 to 2.5 relative activity over Rd2BB (SEQ ID NO: 10))”.
For B14, the “Relative Activity of GLA Variants After No Challenge (NC)” value was “++ (++ = 1.5 to 2.5 relative activity over Rd2BB (SEQ ID NO: 10))”.
For B15, the “Relative Activity of GLA Variants After No Challenge (NC)” value was “+++ (+++ = >2.5 relative activity over Rd2BB (SEQ ID NO: 10))”.
In the case of B16, the “Relative Activity of GLA Variants After No Challenge (NC)” value is reported as “++ (++ = 1.5 to 2.5 relative activity over Rd2BB (SEQ ID NO: 10))”.

Assay: HTP-analysis of supernatants pretreated with base (MUGal hydrolysis)
Assay type: biochemical
Conditions: challenge at pH 7.6; activity of the variant/activity of Rd2BB (SEQ ID NO: 10); yeast supernatant
Procedure, shortened: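 GLA variants were secreted by transformed INVSc1 yeast grown 66-84 h at 30° C. Supernatants were exposed to neutral-to-basic buffers (pH 7.0-9.7) at 37° C for 1-18 h, then assayed with MUGal in acidic citrate/McIlvaine buffer, with fluorescence read after quenching.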
With B1 the “Relative Activity of GLA Variants After Challenge at pH 7.6” value (shortened to “Relative Activity … at pH 7.6”) was “++ (++ = 1.5 to 2.5 relative activity over Rd2BB (SEQ ID NO: 10))”.
With B2 the “Relative Activity … at pH 7.6” value was “++ (++ = 1.5 to 2.5 relative activity over Rd2BB (SEQ ID NO: 10))”.
For B3, the “Relative Activity … at pH 7.6” value was “+ (+ = 0.5 to 1.5 relative activity over Rd2BB (SEQ ID NO: 10))”.
For B4, the “Relative Activity … at pH 7.6” value was “++ (++ = 1.5 to 2.5 relative activity over Rd2BB (SEQ ID NO: 10))”.
With B5 the “Relative Activity … at pH 7.6” value was “+++ (+++ = >2.5 relative activity over Rd2BB (SEQ ID NO: 10))”.
With B6 the “Relative Activity … at pH 7.6” value was “− (− = <0.5 relative activity over Rd2BB (SEQ ID NO: 10))”.
With B7 the “Relative Activity … at pH 7.6” value was “++ (++ = 1.5 to 2.5 relative activity over Rd2BB (SEQ ID NO: 10))”.
In the case of B8, the “Relative Activity … at pH 7.6” value is reported as “+ (+ = 0.5 to 1.5 relative activity over Rd2BB (SEQ ID NO: 10))”.
For B9, the “Relative Activity … at pH 7.6” value was “+ (+ = 0.5 to 1.5 relative activity over Rd2BB (SEQ ID NO: 10))”.
With B10 the “Relative Activity … at pH 7.6” value was “+ (+ = 0.5 to 1.5 relative activity over Rd2BB (SEQ ID NO: 10))”.
With B11 the “Relative Activity … at pH 7.6” value was “+++ (+++ = >2.5 relative activity over Rd2BB (SEQ ID NO: 10))”.
In the case of B12, the “Relative Activity … at pH 7.6” value is reported as “++ (++ = 1.5 to 2.5 relative activity over Rd2BB (SEQ ID NO: 10))”.
With B13 the “Relative Activity … at pH 7.6” value was “+++ (+++ = >2.5 relative activity over Rd2BB (SEQ ID NO: 10))”.
In the case of B14, the “Relative Activity … at pH 7.6” value is reported as “+++ (+++ = >2.5 relative activity over Rd2BB (SEQ ID NO: 10))”.
With B15 the “Relative Activity … at pH 7.6” value was “+++ (+++ = >2.5 relative activity over Rd2BB (SEQ ID NO: 10))”.
With B16 the “Relative Activity … at pH 7.6” value was “+++ (+++ = >2.5 relative activity over Rd2BB (SEQ ID NO: 10))”.
